The results in this text go back to patent US20230250188A1 (NATIONAL UNIVERSITY CORPORATION KOCHI UNIVERSITY, published 2023).

One assay has as its target T1, MC38-mGPC1.
T1 construct: also called mGPC1-MC38; mouse GPC1 stably expressed on the mouse colorectal cancer cell line MC38
T1 mouse Glypican-1: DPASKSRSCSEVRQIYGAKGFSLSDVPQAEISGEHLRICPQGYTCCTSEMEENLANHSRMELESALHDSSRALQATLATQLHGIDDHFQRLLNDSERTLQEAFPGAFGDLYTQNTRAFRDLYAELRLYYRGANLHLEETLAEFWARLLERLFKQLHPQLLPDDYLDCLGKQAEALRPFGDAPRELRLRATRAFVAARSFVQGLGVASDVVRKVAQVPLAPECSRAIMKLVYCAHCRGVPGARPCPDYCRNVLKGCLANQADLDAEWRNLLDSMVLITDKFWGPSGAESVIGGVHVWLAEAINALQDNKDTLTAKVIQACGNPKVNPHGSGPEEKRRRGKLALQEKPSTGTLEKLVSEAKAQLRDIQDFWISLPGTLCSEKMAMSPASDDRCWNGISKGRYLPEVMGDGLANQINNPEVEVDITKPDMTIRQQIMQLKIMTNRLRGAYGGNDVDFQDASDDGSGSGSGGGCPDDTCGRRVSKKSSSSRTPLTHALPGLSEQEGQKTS
Nature of the assay: flow cytometry on MC38-mGPC1 cells (the sheet names clone 01a033 and mIgG2a; paragraph 327 names clone T2 with FITC anti-human IgG).

For assay [1], the target named is T2, recombinant human GPC1 protein (R&D Systems) (human, UniProt P35052 24-530).
T2 construct: Bought recombinant protein (R&D Systems); also called human GPC-1 antigen; Glypican-1
T2 sequence: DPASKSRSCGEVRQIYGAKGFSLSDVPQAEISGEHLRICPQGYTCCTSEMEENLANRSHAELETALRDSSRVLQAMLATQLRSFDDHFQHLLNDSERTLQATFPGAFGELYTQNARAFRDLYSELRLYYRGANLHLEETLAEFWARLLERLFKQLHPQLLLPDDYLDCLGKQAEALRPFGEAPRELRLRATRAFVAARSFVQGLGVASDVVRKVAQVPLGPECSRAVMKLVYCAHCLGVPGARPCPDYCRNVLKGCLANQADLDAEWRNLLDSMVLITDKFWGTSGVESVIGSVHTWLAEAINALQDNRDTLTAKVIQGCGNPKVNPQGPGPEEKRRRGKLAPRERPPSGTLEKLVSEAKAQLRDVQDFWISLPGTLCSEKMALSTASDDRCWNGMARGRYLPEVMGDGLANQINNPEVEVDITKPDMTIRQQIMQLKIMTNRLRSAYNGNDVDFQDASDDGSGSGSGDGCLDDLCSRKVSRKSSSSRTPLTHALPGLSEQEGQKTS
The assay is described as follows: SPR (Biacore 8K); antibody captured by anti-mouse-Fc antibody on the chip, human GPC-1 flowed over. As to the method: The binding affinity of the mouse antibody to human GPC-1 was measured through surface plasmon resonance technique (Biacore (registered trademark) 8K). An anti-mouse-Fc antibody was immobilized on a chip, and the mouse antibody (01a033) was flowed thereon and allowed to bind thereto. After washing, the human GPC-1 was flowed thereon, and the binding constant (Ka) and the dissociation constant (Kd) were measured.

In general, Kd refers to the concentration at which binding is half-saturated. The koff is the rate constant with which the complex falls apart. In general, kon refers to a measure of how fast the partners come together.

B1: anti-GPC-1 mouse monoclonal antibody 01a033 (antibody, V domains shown)
VH: QVQLKQSGPELVKPGASVKISCKASGYSFTGYYMHWVKQSPEKSLEWIGEINPSTGDTTYNQKFKAKATLTVDKSSSTAYMQLKSLTSEDSAVYYCAREKRDDGVFAYWGQGTLVTVSS
VL: DIVMSQSPKSMSMSVGERVALSCKASENVGTYVSWYQQKPEQSPKLLIYGASNRYTGVPDRFTGSGSATDFTLTISSVQAEDLADYYCGQSYSYPLTFGAGTKLELK
notes: Mouse monoclonal antibody; also called mouse antibody (01a033); mouse anti-GPC1 antibody (clone 01a033)
B1: the binding result with MC38-mGPC1 was “binds”. Besides, in assay [1], the Kd turned out to be 31.6 nM, the koff was 0.00388 s⁻¹ and the kon stood at 123000 M⁻¹ s⁻¹.
